Tested on: Escherichia coli TOP10
Assay: shrunken log2 fold change of peptide-encoding DNA abundance (4.5 h post-induction vs induction); higher = less antimicrobial activity (less host growth inhibition)
Settings: time post-induction: 4.5 h; library: site-saturation at positions 5, 18, 19, 20
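Note: peptides expressed intracellularly from a pBAD plasmid library in pooled LB shake-flask culture, induced with 0.3% L-arabinose, DNA abundance read by NGS, three biological replicates, DESeq2 with apeglm shrinkage.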

| Sequence | shrunken log2 fold change |
| --- | --- |
| RRIRVRPPRLPRPRPRPVKSPRP | -0.0272 |
| RRIRVRPPRLPRPRPRPVLHPRP | -0.243 |
| RRIRVRPPRLPRPRPRPVMMPRP | -0.938 |
| RRIRVRPPRLPRPRPRPVNTPRP | -0.236 |
| RRIRVRPPRLPRPRPRPVPKPRP | 0.128 |
| RRIRVRPPRLPRPRPRPVPSPRP | -0.0143 |
| RRIRVRPPRLPRPRPRPVQMPRP | -0.0712 |
| RRIRVRPPRLPRPRPRPVTIPRP | -0.232 |
| RRIRVRPPRLPRPRPRPVTPPRP | 0.214 |
| RRIRVRPPRLPRPRPRPVWWPRP | -0.0476 |
| RRIRVRPPRLPRPRPRPVYHPRP | -0.544 |
| RRIRVRPPRLPRPRPRPVYSPRP | -0.0974 |
| RRIRVRPPRLPRPRPRPWAQPRP | -0.365 |
| RRIRVRPPRLPRPRPRPWAYPRP | -0.323 |
| RRIRVRPPRLPRPRPRPWCHPRP | -0.291 |
| RRIRVRPPRLPRPRPRPWCVPRP | -0.504 |
| RRIRVRPPRLPRPRPRPWEGPRP | 0.0112 |
| RRIRVRPPRLPRPRPRPWFSPRP | -0.128 |
| RRIRVRPPRLPRPRPRPWHAPRP | -0.109 |
| RRIRVRPPRLPRPRPRPWHHPRP | 0.0243 |
| RRIRVRPPRLPRPRPRPWHMPRP | -0.672 |
| RRIRVRPPRLPRPRPRPWHRPRP | -0.145 |

| Sequence | shrunken log2 fold change |
| --- | --- |
| RRIRVRPPRLPRPRPRPWHSPRP | -0.435 |
| RRIRVRPPRLPRPRPRPWIMPRP | -0.0202 |
| RRIRVRPPRLPRPRPRPWLGPRP | -0.0696 |
| RRIRVRPPRLPRPRPRPWMNPRP | -0.00133 |
| RRIRVRPPRLPRPRPRPWNNPRP | -0.204 |
| RRIRVRPPRLPRPRPRPWPKPRP | 0.0246 |
| RRIRVRPPRLPRPRPRPWPNPRP | 0.179 |
| RRIRVRPPRLPRPRPRPWPPPRP | 0.46 |
| RRIRVRPPRLPRPRPRPWQLPRP | -0.421 |
| RRIRVRPPRLPRPRPRPWRCPRP | -0.0179 |
| RRIRVRPPRLPRPRPRPWREPRP | 0.0932 |
| RRIRVRPPRLPRPRPRPWRHPRP | 0.288 |
| RRIRVRPPRLPRPRPRPWSRPRP | -0.273 |
| RRIRVRPPRLPRPRPRPWTAPRP | -0.12 |
| RRIRVRPPRLPRPRPRPWTTPRP | 0.115 |
| RRIRVRPPRLPRPRPRPWVLPRP | 0.054 |
| RRIRVRPPRLPRPRPRPWWQPRP | -0.201 |
| RRIRVRPPRLPRPRPRPWWRPRP | 1.25 |
| RRIRVRPPRLPRPRPRPWWYPRP | -0.327 |
| RRIRVRPPRLPRPRPRPWYCPRP | -0.462 |
| RRIRVRPPRLPRPRPRPYAGPRP | 0.0438 |
| RRIRVRPPRLPRPRPRPYCAPRP | -0.229 |

| Sequence | shrunken log2 fold change |
| --- | --- |
| RRIRVRPPRLPRPRPRPYCCPRP | -0.252 |
| RRIRVRPPRLPRPRPRPYCIPRP | -0.27 |
| RRIRVRPPRLPRPRPRPYDYPRP | -0.00141 |
| RRIRVRPPRLPRPRPRPYEHPRP | -0.118 |
| RRIRVRPPRLPRPRPRPYFRPRP | -0.153 |
| RRIRVRPPRLPRPRPRPYGFPRP | -0.222 |
| RRIRVRPPRLPRPRPRPYHCPRP | -0.157 |
| RRIRVRPPRLPRPRPRPYMTPRP | -0.566 |
| RRIRVRPPRLPRPRPRPYMYPRP | -0.588 |
| RRIRVRPPRLPRPRPRPYPCPRP | 3.36e-05 |
| RRIRVRPPRLPRPRPRPYPSPRP | -0.422 |
| RRIRVRPPRLPRPRPRPYQCPRP | -0.185 |
| RRIRVRPPRLPRPRPRPYSIPRP | 0.0569 |
| RRIRVRPPRLPRPRPRPYVFPRP | -0.136 |
| RRIRVRPPRLPRPRPRPYVVPRP | -0.0262 |
| RRIRVRPPRLPRPRPRPYWMPRP | -0.227 |
| RRIRVRPPRLPRPRPRPYWPPRP | -0.182 |
| RRIRVRPPRLPRPRPRPYYRPRP | -0.309 |
| RRIRWRPPRLPRPRPRPAAMPRP | 0.604 |
| RRIRWRPPRLPRPRPRPADCPRP | -0.00218 |
| RRIRWRPPRLPRPRPRPADMPRP | 0.0185 |
| RRIRWRPPRLPRPRPRPADTPRP | 0.0101 |

| Sequence | shrunken log2 fold change |
| --- | --- |
| RRIRWRPPRLPRPRPRPAEYPRP | 0.101 |
| RRIRWRPPRLPRPRPRPAGHPRP | -0.0472 |
| RRIRWRPPRLPRPRPRPAHGPRP | 0.707 |
| RRIRWRPPRLPRPRPRPAIGPRP | 0.0325 |
| RRIRWRPPRLPRPRPRPALMPRP | 0.159 |
| RRIRWRPPRLPRPRPRPAMAPRP | 0.529 |
| RRIRWRPPRLPRPRPRPAMMPRP | 0.306 |
| RRIRWRPPRLPRPRPRPANAPRP | 0.711 |
| RRIRWRPPRLPRPRPRPAPQPRP | 0.743 |
| RRIRWRPPRLPRPRPRPAQIPRP | 0.0333 |
| RRIRWRPPRLPRPRPRPAQTPRP | 0.476 |
| RRIRWRPPRLPRPRPRPARAPRP | 0.563 |
| RRIRWRPPRLPRPRPRPASKPRP | 0.294 |
| RRIRWRPPRLPRPRPRPATSPRP | 0.385 |
| RRIRWRPPRLPRPRPRPAWCPRP | 0.469 |
| RRIRWRPPRLPRPRPRPAYWPRP | 0.473 |
| RRIRWRPPRLPRPRPRPCCFPRP | -0.0922 |
| RRIRWRPPRLPRPRPRPCDSPRP | -0.00192 |
| RRIRWRPPRLPRPRPRPCFNPRP | -0.382 |
| RRIRWRPPRLPRPRPRPCGEPRP | 0.216 |
| RRIRWRPPRLPRPRPRPCGLPRP | 0.123 |
| RRIRWRPPRLPRPRPRPCHAPRP | -0.253 |

| Sequence | shrunken log2 fold change |
| --- | --- |
| RRIRWRPPRLPRPRPRPCHEPRP | -0.00847 |
| RRIRWRPPRLPRPRPRPCIPPRP | -0.0746 |
| RRIRWRPPRLPRPRPRPCKPPRP | 0.119 |
| RRIRWRPPRLPRPRPRPCLRPRP | 0.0809 |
| RRIRWRPPRLPRPRPRPCLYPRP | -0.0689 |
| RRIRWRPPRLPRPRPRPCPDPRP | 0.111 |
| RRIRWRPPRLPRPRPRPCPGPRP | -0.218 |
| RRIRWRPPRLPRPRPRPCPHPRP | -0.00679 |
| RRIRWRPPRLPRPRPRPCPKPRP | -0.0941 |
| RRIRWRPPRLPRPRPRPCPLPRP | -0.247 |
| RRIRWRPPRLPRPRPRPCQFPRP | -0.00192 |
| RRIRWRPPRLPRPRPRPCRGPRP | -0.0518 |
| RRIRWRPPRLPRPRPRPCYVPRP | -0.127 |
| RRIRWRPPRLPRPRPRPDADPRP | 3.34 |
| RRIRWRPPRLPRPRPRPDCHPRP | -0.346 |
| RRIRWRPPRLPRPRPRPDDGPRP | 0.305 |
| RRIRWRPPRLPRPRPRPDFAPRP | 0.49 |
| RRIRWRPPRLPRPRPRPDFCPRP | 0.247 |
| RRIRWRPPRLPRPRPRPDFLPRP | -0.221 |
| RRIRWRPPRLPRPRPRPDFMPRP | -0.015 |
| RRIRWRPPRLPRPRPRPDGCPRP | 0.0109 |
